# Laboratory results: article PMC3964825
# B1: HOTAIR 212-300 (minHOTAIR) (structured_RNA)
# RNA: GGAACGGAUUUAGAAGCCUGCAGUAGGGGAGUGGGGAGUGGAGAGAGGGAGCCCAGAGUUACAGACGGCGGCGAGAGGAAGGAGGGGCGGAU
# B2: HOTAIR 201-300 (structured_RNA)
# RNA: GCAGUGGAAUGGAACGGAUUUAGAAGCCUGCAGUAGGGGAGUGGGGAGUGGAGAGAGGGAGCCCAGAGUUACAGACGGCGGCGAGAGGAAGGAGGGGCGGAU
# B3: HOTAIR 1-100 (structured_RNA)
# RNA: GACUCGCCUGUGCUCUGGAGCUUGAUCCGAAAGCUUCCACAGUGAGGACUGCUCCGUGGGGGUAAGAGAGCACCAGGCACUGAGGCCUGGGAGUUCCACA
# B4: HOTAIR 101-300 (structured_RNA)
# RNA: GACCAACACCCCUGCUCCUGGCGGCUCCCACCCGGGGCUUAGACCCUCAGGUCCCUAAUAUCCCGGAGGUGCUCUCAAUCAGAAAGGUCCUGCUCCGCUUCGCAGUGGAAUGGAACGGAUUUAGAAGCCUGCAGUAGGGGAGUGGGGAGUGGAGAGAGGGAGCCCAGAGUUACAGACGGCGGCGAGAGGAAGGAGGGGCGGAU
# How the values were obtained:
# Assay in all cases: EMSA
# [1] = biological target: PRC2 3m (EZH2-EED-SUZ12) (UniProt Q15910;O75530;Q15022 1-746;1-441;1-739)
# Chain of PRC2 3m (EZH2-EED-SUZ12) (Q15910 whole entry, chain 1 of 3): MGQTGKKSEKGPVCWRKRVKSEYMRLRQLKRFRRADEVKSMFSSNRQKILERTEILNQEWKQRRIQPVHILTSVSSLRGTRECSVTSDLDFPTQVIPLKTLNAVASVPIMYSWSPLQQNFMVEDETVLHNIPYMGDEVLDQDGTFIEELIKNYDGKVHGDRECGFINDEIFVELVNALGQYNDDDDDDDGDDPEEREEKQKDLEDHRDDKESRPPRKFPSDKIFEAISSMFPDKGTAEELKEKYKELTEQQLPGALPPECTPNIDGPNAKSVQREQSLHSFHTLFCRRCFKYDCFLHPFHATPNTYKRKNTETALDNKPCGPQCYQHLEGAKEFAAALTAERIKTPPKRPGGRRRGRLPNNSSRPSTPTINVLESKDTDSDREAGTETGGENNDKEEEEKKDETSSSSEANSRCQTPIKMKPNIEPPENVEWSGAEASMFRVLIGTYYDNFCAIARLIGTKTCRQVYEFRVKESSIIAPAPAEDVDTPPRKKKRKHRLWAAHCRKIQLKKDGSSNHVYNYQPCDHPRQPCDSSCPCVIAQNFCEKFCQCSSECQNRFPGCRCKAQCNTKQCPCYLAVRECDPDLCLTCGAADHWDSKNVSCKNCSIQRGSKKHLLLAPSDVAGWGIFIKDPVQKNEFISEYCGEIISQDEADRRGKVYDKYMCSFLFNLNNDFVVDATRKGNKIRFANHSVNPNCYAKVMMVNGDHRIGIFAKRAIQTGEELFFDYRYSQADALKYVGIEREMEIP
# Chain of PRC2 3m (EZH2-EED-SUZ12) (O75530 whole entry, chain 2 of 3): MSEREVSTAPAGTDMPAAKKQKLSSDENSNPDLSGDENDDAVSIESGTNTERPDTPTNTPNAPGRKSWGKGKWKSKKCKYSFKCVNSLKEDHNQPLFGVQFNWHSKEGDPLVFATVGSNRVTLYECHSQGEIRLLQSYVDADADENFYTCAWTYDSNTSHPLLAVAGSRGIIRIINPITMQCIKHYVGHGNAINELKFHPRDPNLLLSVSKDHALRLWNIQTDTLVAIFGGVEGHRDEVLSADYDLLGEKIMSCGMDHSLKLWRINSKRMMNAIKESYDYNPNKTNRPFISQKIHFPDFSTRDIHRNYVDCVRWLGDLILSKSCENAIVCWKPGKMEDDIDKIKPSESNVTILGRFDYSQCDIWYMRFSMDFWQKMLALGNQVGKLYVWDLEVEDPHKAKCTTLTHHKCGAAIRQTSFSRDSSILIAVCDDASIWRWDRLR
# Chain of PRC2 3m (EZH2-EED-SUZ12) (Q15022 whole entry, chain 3 of 3): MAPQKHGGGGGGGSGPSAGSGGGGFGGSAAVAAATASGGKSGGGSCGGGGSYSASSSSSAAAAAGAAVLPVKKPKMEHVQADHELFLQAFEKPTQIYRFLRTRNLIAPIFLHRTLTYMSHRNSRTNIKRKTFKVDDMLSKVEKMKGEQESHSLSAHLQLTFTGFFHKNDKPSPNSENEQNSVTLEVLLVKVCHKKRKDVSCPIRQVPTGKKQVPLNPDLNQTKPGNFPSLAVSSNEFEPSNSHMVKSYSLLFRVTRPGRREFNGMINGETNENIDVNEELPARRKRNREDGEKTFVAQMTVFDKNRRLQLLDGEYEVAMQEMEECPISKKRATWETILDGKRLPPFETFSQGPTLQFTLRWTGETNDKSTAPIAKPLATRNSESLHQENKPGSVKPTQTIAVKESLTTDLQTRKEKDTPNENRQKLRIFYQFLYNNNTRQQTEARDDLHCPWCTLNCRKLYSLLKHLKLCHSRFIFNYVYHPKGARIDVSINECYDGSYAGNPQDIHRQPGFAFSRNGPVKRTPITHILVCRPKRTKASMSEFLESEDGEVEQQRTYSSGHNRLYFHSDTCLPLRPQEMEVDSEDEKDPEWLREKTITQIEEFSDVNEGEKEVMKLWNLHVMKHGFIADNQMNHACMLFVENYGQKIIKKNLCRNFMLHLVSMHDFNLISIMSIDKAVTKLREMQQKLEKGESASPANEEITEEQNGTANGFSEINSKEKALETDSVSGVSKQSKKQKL
# [2] = biological target: LSD1 (UniProt O60341 1-852)
# [3] = biological target: EZH2-EED (UniProt Q15910;O75530 1-746;1-441)
# Chain of EZH2-EED (Q15910 whole entry, chain 1 of 2): as the sequence (Q15910 whole entry, chain 1 of 3) above
# Chain of EZH2-EED (O75530 whole entry, chain 2 of 2): as the sequence (O75530 whole entry, chain 2 of 3) above
Binder,Kd [1] [nM],binding result [2],Kd [3] [nM],binding result [3]
B1,111 ± 10,no binding,135 ± 20,
B2,,,157 ± 12,
B3,,,,no binding
B4,,,119 ± 18,
